Test results published in patent publication US20250326842A1 (BEIGENE SWITZERLAND, published 2025).

Legend:
[1] = biological target: T1, hPVRIG-ECD-his (human, UniProt Q6DKI7 41-171); test: SPR (Biacore), BGA384 captured via anti-human Fc, human PVRIG-His analyte
T1 construct: Acrobiosystems PVG-H52H4; also called hPVRIG-His; human PVRIG-His; not shown: His tag
T1 sequence: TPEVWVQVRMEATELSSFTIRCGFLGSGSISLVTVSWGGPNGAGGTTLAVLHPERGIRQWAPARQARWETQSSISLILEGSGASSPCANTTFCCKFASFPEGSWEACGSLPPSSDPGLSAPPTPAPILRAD
Procedure: SPR koff and kₒₙ were calculated using the one-to-one Langmuir binding model (BIA Evaluation Software, GE Life Sciences); KD was calculated as the ratio of koff/kₒₙ.

[2] = biological target: T2, human PVRIG expressed on cells (human, UniProt Q6DKI7 41-326); test: cell-based or functional assay
T2 sequence: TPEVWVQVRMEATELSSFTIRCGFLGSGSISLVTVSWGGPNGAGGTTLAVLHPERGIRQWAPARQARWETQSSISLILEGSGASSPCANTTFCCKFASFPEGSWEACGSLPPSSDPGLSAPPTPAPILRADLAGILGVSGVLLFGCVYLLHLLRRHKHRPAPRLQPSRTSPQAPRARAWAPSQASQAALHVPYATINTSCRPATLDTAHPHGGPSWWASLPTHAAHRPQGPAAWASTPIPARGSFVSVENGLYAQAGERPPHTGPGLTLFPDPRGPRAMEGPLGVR

[3] = biological target: T2, human PVRIG expressed on cells; test: flow cytometry on Jurkat cells expressing human PVRIG, anti-hFc-647 detection [panel B]
Procedure: To evaluate the binding activity of anti-PVRIG antibodies to native PVRIG on living cells, Jurkat cells were engineered to express human PVRIG. Jurkat cells expressing PVRIG were seeded in 96 well plates and were incubated with serially diluted anti-PVRIG antibodies. […] EC50 values for dose dependent binding to human native PVRIG were determined by fitting the dose response data to the four-parameter logistic model with GraphPad Prism™.

[4] = biological target: T2, human PVRIG expressed on cells; test: flow cytometry on HuPVRIG-overexpressed Jurkat cells
[5] = biological target: FcγRI (human, UniProt P12314 16-288, limits assumed); test: Biacore, KD from kinetic constants (koff/kon)
Sequence of FcγRI (P12314 16-288 limits assumed): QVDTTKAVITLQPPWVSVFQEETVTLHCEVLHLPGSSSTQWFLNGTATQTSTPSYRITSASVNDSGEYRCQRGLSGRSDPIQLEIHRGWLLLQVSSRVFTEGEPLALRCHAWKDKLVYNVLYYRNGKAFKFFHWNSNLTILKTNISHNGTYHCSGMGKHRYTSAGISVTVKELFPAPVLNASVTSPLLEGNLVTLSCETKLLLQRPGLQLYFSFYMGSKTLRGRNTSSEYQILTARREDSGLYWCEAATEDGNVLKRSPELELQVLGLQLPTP
Procedure: K¹ (M) values were calculated from the ratio of the kinetic constants as KD=koff/kₒₙ. K2 (M) values were determined by the analyte concentration at which half of the ligands are occupied at equilibrium.

Kd [1]: 0.0826 nM
koff [1]: 0.000344 s⁻¹
kon [1]: 4.16e+06 M⁻¹ s⁻¹
EC50 of promoter-driven luminescence, JK-NFAT-HuPVRIG with A549/OS8-H cells [2]: 0.0377 µg/mL
EC50 (read off the curve) [3]: ~0.03 µg/mL
EC50 [4]: 0.0269 µg/mL
Kd [5]: 3.26 nM
B1: BGA384 (antibody, human IgG1, kappa)
heavy: not shown
light: QIVLTQSPATLSLSPGERATLSCSAGSSVNYMHWFQQKPGQAPRLLIYSTSNLASGVPARFSGSGSGTDYTLTISSLEPEDFAVYYCQQRSSLPFTFGQGTKLEIKRTVAAPSVFIFPPSDEQLKSGTASVVCLLNNFYPREAKVQWKVDNALQSGNSQESVTEQDSKDSTYSLSSTLTLSKADYEKHKVYACEVTHQGLSSPVTKSFNRGEC
notes: also called BGB-A538; BGA384 WT
